Results published in patent US5639616, “Isolated nucleic acid encoding a ubiquitous nuclear receptor” (Arch Development Corporation).

T1: rUR DNA-binding domain (UR-DBD) (Rattus norvegicus, UniProt Q62755 SEQ:72-168)
T1 sequence: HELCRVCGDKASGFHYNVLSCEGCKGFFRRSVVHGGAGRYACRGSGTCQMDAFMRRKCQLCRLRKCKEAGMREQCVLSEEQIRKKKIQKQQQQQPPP

B1: DR-1 (dsDNA)
DNA 1: GATCCTCAGGTCAGAGGTCAGAAGCT
DNA 2: AGCTTCTGACCTCTGACCTGAGGATC
B2: DR-2 (dsDNA)
DNA 1: GATCCTCAGGTCAAGAGGTCAGAAGCT
DNA 2: AGCTTCTGACCTCTTGACCTGAGGATC
B3: DR-4 (dsDNA)
DNA 1: GATCCTCAGGTCACAGGAGGTCAGAAGCT
DNA 2: AGCTTCTGACCTCCTGTGACCTGAGGATC
B4: DR-5 (dsDNA)
DNA 1: GATCCTCAGGTCACCAGGAGGTCAGAAGCT
DNA 2: AGCTTCTGACCTCCTGGTGACCTGAGGATC
B5: DR-6 (dsDNA)
DNA 1: GATCCTCAGGTCACCAAGGAGGTCAGAAGCT
DNA 2: AGCTTCTGACCTCCTTGGTGACCTGAGGATC
B6: DR-3 (dsDNA)
DNA 1: GATCCTCAGGTCAAGGAGGTCAGAAGCT
DNA 2: AGCTTCTGACCTCCTTGACCTGAGGATC
B7: DR-0 (dsDNA)
DNA 1: GATCCTCAGGTCAAGGTCAGAAGCT
DNA 2: AGCTTCTGACCTTGACCTGAGGATC

Experiments:
[1] = biological target: human retinoid X receptor alpha (hRXRα) (human) (UniProt P19793)
[2] = biological target: T1, rUR DNA-binding domain (UR-DBD); assay: EMSA; monomer binding; conditions: tags: His tag, pET15b fusion, E. coli; label: 32P; 4-nt 5' overhangs
Procedure: (§1) The DNA-binding ability of this domain was tested by gel-shift analyses with a set of oligonucleotides that contained AGGTCA direct repeats with 0 to 6 oligonucleotide spacing (shown above).
(§2) A segment of UR containing the DBD and a few amino acids of the hinge region (rUR amino acid residues 72 to 168) was expressed as a fusion protein using the E. coli expression vector PET15b and purified by affinity (Ni^+2/His-tag) chromatography. The DNA-binding ability of this domain was tested by gel shift analysis with a set of oligonucleotides that contained AGGTCA direct repeats with 0 to 6 oligonucleotide spacing. The UR fusion protein bound to all these direct repeats as a monomer, and optimum spacing for homodimer binding was 4 and 5 nucleotides, which is identical to a retinoic acid receptor response element (RARE). A hinge region peptide antibody super-shifted UR DBD homodimers bound to DR-4 and DR-5. Supershifting of monomer was not observed.

[3] = biological target: T1, rUR DNA-binding domain (UR-DBD); assay: EMSA; monomer plus homodimer; homodimer best on DR-4 and DR-5, supershifted by hinge antibody; conditions: tags: His tag, pET15b fusion, E. coli; label: 32P; 4-nt 5' overhangs
Procedure: as §1, §2

[4] = biological target: T1, rUR DNA-binding domain (UR-DBD); assay: EMSA; monomer plus homodimer; optimum homodimer spacing, supershifted by hinge antibody; conditions: tags: His tag, pET15b fusion, E. coli; label: 32P; 4-nt 5' overhangs
Procedure: as §1, §2

Molecule	binding result [2]	further results
rat ubiquitous nuclear receptor (rUR), full-length	–	CAT activity of a DR-4 CAT reporter in COS-1 cells, absence of 9c-RA [1]: 4 to 5 fold
B1	binds	–
B2	binds	–
B3	–	binding result [3]: binds
B4	–	binding result [4]: binds
B5	binds	–
B6	binds	–
B7	binds	–
